US20250277029A1 (Amgen, published 2025)

Tests used:
[1] = target: T1, empty-ND (nanodisc without CB1); test: flow cytometry, yeast-displayed IgG, binding/display ratio
T1 construct: its only protein is the nanodisc scaffold; also called Empty Nanodisc

[2] = target: T2, His-tagged huCB1-ND (human CB1 in nanodisc) (human); test: as above
T2 construct: CB1 construct of Cell 167(3) (2016) 750-762 expressed in Sf9 cells; POPC:MSP1D1:CB1 480:8:1; also called CB1-nanodisc; huCB1-Nanodisc; not shown: histidine purification tag
T2 sequence (P21554 99-414): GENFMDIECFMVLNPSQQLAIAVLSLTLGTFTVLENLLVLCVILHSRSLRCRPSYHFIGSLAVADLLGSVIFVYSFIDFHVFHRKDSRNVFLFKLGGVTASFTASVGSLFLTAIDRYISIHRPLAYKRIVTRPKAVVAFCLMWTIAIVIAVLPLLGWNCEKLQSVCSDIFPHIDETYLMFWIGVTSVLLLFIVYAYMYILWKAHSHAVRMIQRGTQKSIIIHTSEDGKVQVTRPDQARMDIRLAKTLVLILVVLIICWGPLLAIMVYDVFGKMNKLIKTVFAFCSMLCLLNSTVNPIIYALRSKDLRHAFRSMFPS

[3] = target: T3, GFP-fused huCB1-SMALP (human CB1 in styrene maleic acid lipoparticles) (human, UniProt P21554 1-472); test: flow cytometry, yeast-displayed IgG, GFP MFI
T3 construct: Prepared as in Luna V. et al. 2018; also called huCB1-GFP-SMALP; wtCB1-SMALP; not shown: GFP fusion
T3 sequence (P21554 whole entry, the tested form may be a part): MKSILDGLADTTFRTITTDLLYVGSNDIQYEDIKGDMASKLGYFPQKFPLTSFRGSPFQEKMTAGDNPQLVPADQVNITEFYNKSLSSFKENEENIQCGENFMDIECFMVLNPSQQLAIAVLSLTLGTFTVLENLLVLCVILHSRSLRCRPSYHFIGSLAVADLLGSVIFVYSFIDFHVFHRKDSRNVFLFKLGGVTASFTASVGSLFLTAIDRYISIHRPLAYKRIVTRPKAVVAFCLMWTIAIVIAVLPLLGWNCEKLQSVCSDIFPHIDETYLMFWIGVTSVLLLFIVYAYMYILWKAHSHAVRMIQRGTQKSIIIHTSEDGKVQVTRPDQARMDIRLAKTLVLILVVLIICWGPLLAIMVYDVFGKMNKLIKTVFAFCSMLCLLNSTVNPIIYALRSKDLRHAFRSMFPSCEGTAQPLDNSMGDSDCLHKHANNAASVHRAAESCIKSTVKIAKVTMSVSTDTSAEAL

[4] = target: T2, His-tagged huCB1-ND (human CB1 in …); test: flow cytometry, yeast-displayed IgG, huCB1-ND over empty-ND
[5] = target: T3, GFP-fused huCB1-SMALP (human CB1 in …); test: flow cytometry, yeast-displayed IgG, GFP MFI; remark: listed apart in the source
[6] = target: T2, His-tagged huCB1-ND (human CB1 in …); test: flow cytometry, yeast-displayed IgG, binding/display ratio; remark: listed apart in the source

B1: LIBC527827-1 (antibody, V domains shown)
VH: QVQLQESGPGLVKPSQTLSLTCTVSGGSIRRGGDYWGWIRQHPGKGLEWIGHVYQSGQTAYNPKFENRATISVKTYKNQFSLKLSSVTAADTAVYYCARNYDTLTGHSYYYYGMDVWGQGTTVTVSS
VL: DIQMTQSPSTLSASVGDRVTITCRASQSISNYLNWYQQKPGKAPKLLIYAASSLHSGVPSRFSGSGSGTDFTLTISSLQPEDFASYYCQQYQSYPLTFGQGTKVEIKR
notes: also called LIBC527827-1 + VK1 germline fix(es)
50.0 nM Empty Nanodisc binding (relative to 10D10N35Y) [1]: 1.16 fold | 0.200 nM huCB1-Nanodisc binding (relative to 10D10N35Y) [2]: 4.31 fold | 100 nM huCB1-GFP-SMALP binding (normalized to 10D10N35Y) [3]: 4.99 fold

B2: LIBC527968-1 (antibody, V domains shown)
VH: QVQLQESGPGLVKPSQTLSLTCTVSGGSIRRGGDYWSWIRQHPGKGLEWIGHIYQSGSTKYNPSFKDRATISVNTYKNQFSLKLSSVTAADTAVYYCARDYDILTGYSYYYYGMDVWGQGTTVTVSS
VL: DIQLTQSPSTLSASVGDRVTITCRASQSISNYLNWYQQKPGKAPKLLIYAASSLHSGVPSRFSGSGSGTDFTLTISSLQPEDFASYYCQQYQSYPLTFGQGTKVEIKR
notes: also called LIBC527968-1 + VK1 germline fix(es)
50.0 nM Empty Nanodisc binding (relative to 10D10N35Y) [1]: 0.64 fold | 0.200 nM huCB1-Nanodisc binding (relative to 10D10N35Y) [2]: 4.86 fold | 100 nM huCB1-GFP-SMALP binding (normalized to 10D10N35Y) [3]: 4.65 fold

B3: LIBC528169-1 (antibody, V domains shown)
VH: QVQLQESGPGLVKPSQTLSLTCTVSGGSIRRGGDYWSWIRQHPGKGLEWIGHIYQSGSTKYNPSFEDRATISVNTYKNQFSLKLSSVTAADTAVYYCARDYDILTGYSYYYYGMDVWGQGTTVTVSS
VL: DIQLTQSPSTLSASVGDRVTITCRASQSISNYLNWYQQKPGKAPKLLIYAASSLHSGVPSRFSGSGSGTDFTLTISSLQPEDFASYYCQQYQSYPLTFGQGTKVEIKR
notes: also called LIBC528169-1 + VK1 germline fix(es)
50.0 nM Empty Nanodisc binding (relative to 10D10N35Y) [1]: 0.68 fold | 0.200 nM huCB1-Nanodisc binding (relative to 10D10N35Y) [2]: 4.82 fold | 100 nM huCB1-GFP-SMALP binding (normalized to 10D10N35Y) [3]: 4.58 fold

B4: LIBC527906-1 (antibody, V domains shown)
VH: QVQLQESGPGLVKPSQTLSLTCTVSGGSIRRGGDYWGWIRQHPGKGLEWIGHIYQTGSTNYNPNFKDRATISVDTYKNQFSLKLSSVTAADTAVYYCARDYDILTGYSYYYYGMDVWGQGTTVTVSS
VL: DIQLTQSPSTLSASVGDRVTITCRASQSISNYLNWYQQKPGKAPKLLIYAASSLHSGVPSRFSGSGSGTDFTLTISSLQPEDFASYYCQQYQSYPLTFGQGTKVEIKR
notes: also called LIBC527906-1 + VK1 germline fix(es)
50.0 nM Empty Nanodisc binding (relative to 10D10N35Y) [1]: 0.51 fold | 0.200 nM huCB1-Nanodisc binding (relative to 10D10N35Y) [2]: 8.02 fold | 100 nM huCB1-GFP-SMALP binding (normalized to 10D10N35Y) [3]: 3.79 fold

B5: LIBC528141-1 (antibody, V domains shown)
VH: QVQLQESGPGLVKPSQTLSLTCTVSGGSIRRGGDYWSWIRQHPGKGLEWIGHVYQTGSTKYNPRFKGRATISVNTYKNQFSLKLSSVTAADTAVYYCARDYDILTGYSYYYYGMDVWGQGTTVTVSS
VL: DIQLTQSPSTLSASVGDRVTITCRASQSISNYLNWYQQKPGKAPKLLIYAASSLHSGVPSRFSGSGSGTDFTLTISSLQPEDFASYYCQQYQSYPLTFGQGTKVEIKR
50.0 nM Empty Nanodisc binding (relative to 10D10N35Y) [1]: 0.49 fold | 0.200 nM huCB1-Nanodisc binding (relative to 10D10N35Y) [2]: 6.2 fold | 100 nM huCB1-GFP-SMALP binding (normalized to 10D10N35Y) [3]: 8.31 fold

B6: LIBC527869-1 (antibody, V domains shown)
VH: QVQLQESGPGLVKPSQTLSLTCTVSGGNIRRGGDYWAWIRQHPGKGLEWIGHIYHTGKTNYNPSFKGRATISVKTYKNQFSLKLSSVTAADTAVYYCARNYDTLSGNSYYYYGMDVWGQGTTVTVSS
VL: DIQLTQSPSTLSASVGDRVTITCRASQSISNYLNWYQQKPGKAPKLLIYAASSLHSGVPSRFSGSGSGTDFTLTISSLQPEDFASYYCQQYQSYPLTFGQGTKVEIKR
notes: also called LIBC527869-1 + VK1 germline fix(es)
50.0 nM Empty Nanodisc binding (relative to 10D10N35Y) [1]: 0.97 fold | 0.200 nM huCB1-Nanodisc binding (relative to 10D10N35Y) [2]: 4.15 fold | 100 nM huCB1-GFP-SMALP binding (normalized to 10D10N35Y) [3]: 3.61 fold

B7: LIBC527984-1 (antibody, V domains shown)
VH: QVQLQESGPGLVKPSQTLSLTCTVSGGSIRRGGDYWSWIRQHPGKGLEWIGHIYQTGKTNYNPNFKSRATISVNTYKNQFSLKLSSVTAADTAVYYCARDYDILTGYSYYYYGMDVWGQGTTVTVSS
VL: DIQMTQSPSTLSASVGDRVTITCRASQSISNYLNWYQQKPGKAPKLLIYAASSLHSGVPSRFSGSGSGTDFTLTISSLQPEDFASYYCQQYQSYPLTFGQGTKVEIKR
notes: also called LIBC527984-1 + VK1 germline fix(es)
50.0 nM Empty Nanodisc binding (relative to 10D10N35Y) [1]: 0.61 fold | 0.200 nM huCB1-Nanodisc binding (relative to 10D10N35Y) [2]: 5.21 fold | 100 nM huCB1-GFP-SMALP binding (normalized to 10D10N35Y) [3]: 4.85 fold

B8: LIBC523862-1 (antibody, V domains shown)
VH: QVQLQESGPGLVKPSQTLSLTCTVSGGSIRRGGDYWSWIRQHPGKGLEWIGHIYQTGSTAYNPSLKGRATISVNTYKNQFSLKLSSVTAADTAVYYCARDYDILTGYSYYYYGMDVWGQGTTVTVSS
VL: DIVMTQSPLSLPVTPGEPASISCRSSQSLLHSTGANYVDWYLQKPGQSPQLLIYLGSNRASGVPDRFSGSGSGTDFTLKISRVEAEDVGVYYCRQAIALPRTFGQGTKVEIKR
specific huCB1 binding (CB1 ND/Empty ND ratio) [4]: 13.6 ratio | 100 nM huCB1-SMALP binding (normalized to 10D10) [5]: 3.97 fold | relative binding to 0.2 nM huCB1-ND (relative to 10D10N35Y) [6]: 5.07 fold

B9: LIBC523603-1 (antibody, V domains shown)
VH: QVQLQESGPGLVKPSQTLSLTCTVSGGSIRRGGDYWAWIRQHPGKGLEWIGHVYQSGQTAYNPNFENRATISVNTYKNQFSLKLSSVTAADTAVYYCARDYDAVSGYSYYYYGMDVWGQGTTVTVSS
VL: DIVMTQSPLSLPVTPGEPASISCRSSQSLLSSYGNNYVDWYLQKPGQSPQLLIYQGSNRASGVPDRFSGSGSGTDFTLKISRVEAEDVGVYYCRQAVGLPRTFGQGTKVEIKR
specific huCB1 binding (CB1 ND/Empty ND ratio) [4]: 19.4 ratio | 100 nM huCB1-SMALP binding (normalized to 10D10) [5]: 4.05 fold | relative binding to 0.2 nM huCB1-ND (relative to 10D10N35Y) [6]: 6.05 fold

B10: LIBC528131-1 (antibody, V domains shown)
VH: QVQLQESGPGLVKPSQTLSLTCTVSGGSIRRGGDYWSWIRQHPGKGLEWIGHIYQTGQTAYNPNLEGRATISVNTYKNQFSLKLSSVTAADTAVYYCARDYDILTGYSYYYYGMDVWGQGTTVTVSS
VL: EIVLTQSPATLSLSPGERATLSCRASQSVSSYLGWYQQKPGQAPRLLIYGASSRATGIPDRFSGSGSGTDFTLTISRLEPEDFAVYYCQQYGSSPRTFGQGTKVEIKR
notes: VK3 LC
50.0 nM Empty Nanodisc binding (relative to 10D10N35Y) [1]: 0.63 fold | 0.200 nM huCB1-Nanodisc binding (relative to 10D10N35Y) [2]: 4.47 fold | 100 nM huCB1-GFP-SMALP binding (normalized to 10D10N35Y) [3]: 3.68 fold

B11: LIBC523670-1 (antibody, V domains shown)
VH: QVQLQESGPGLVKPSQTLSLTCTVSGGSIRRGGDYWAWIRQHPGKGLEWIGHVYQTGQTAYNPNLESRATISVNTYKNQFSLKLSSVTAADTAVYYCARNYDVLSGYSYYYYGMDVWGQGTTVTVSS
VL: DIVMTQSPLSLPVTPGEPASISCRSSQSLLTSYGANYLDWYLQKPGQSPQLLIYQGSNRASGVPDRFSGSGSGTDFTLKISRVEAEDVGVYYCMQALQIPRTFGQGTKVEIKR
notes: also called LIBC523670-1 + VK2 germline fix
specific huCB1 binding (CB1 ND/Empty ND ratio) [4]: 23 ratio | 100 nM huCB1-SMALP binding (normalized to 10D10) [5]: 5.42 fold | relative binding to 0.2 nM huCB1-ND (relative to 10D10N35Y) [6]: 7.46 fold

B12: LIBC527912-1 (antibody, V domains shown)
VH: QVQLQESGPGLVKPSQTLSLTCTVSGGSIRRGGDYWSWIRQHPGKGLEWIGYIYQTGQTKYNPNFEGRATISVNTYKNQFSLKLSSVTAADTAVYYCARDYDILTGYSYYYYGMDVWGQGTTVTVSS
VL: DIQLTQSPSSLSASVGDRVTITCRASQSISSYLNWYQQKPGKAPKLLIYAASSLRSGVPSRFSGSGSGTDFTLTISSLQPEDFATYYCQQYSNYPLTFGGGTRVEIKR
50.0 nM Empty Nanodisc binding (relative to 10D10N35Y) [1]: 0.51 fold | 0.200 nM huCB1-Nanodisc binding (relative to 10D10N35Y) [2]: 5.95 fold | 100 nM huCB1-GFP-SMALP binding (normalized to 10D10N35Y) [3]: 4.32 fold

B13: LIBC523857-1 (antibody, V domains shown)
VH: QVQLQESGPGLVKPSQTLSLTCTVSGGSIRRGGDYWSWIRQHPGKGLEWIGHIYQTGQTAYNPRLEGRATISVNTYKNQFSLKLSSVTAADTAVYYCARDYDILTGYSYYYYGMDVWGQGTTVTVSS
VL: DIVMTQSPLSLPVTPGEPASISCRSSQSLLSSTGANYLDWYLQKPGQSPQLLIYLGSNRASGVPDRFSGSGSGTDFTLKISRVEAEDVGVYYCRQAVELPRTFGQGTKVEIKR
specific huCB1 binding (CB1 ND/Empty ND ratio) [4]: 13.9 ratio | 100 nM huCB1-SMALP binding (normalized to 10D10) [5]: 4.71 fold | relative binding to 0.2 nM huCB1-ND (relative to 10D10N35Y) [6]: 4.05 fold

B14: LIBC527879-1 (antibody, V domains shown)
VH: QVQLQESGPGLVKPSQTLSLTCTVSGGSIRRGGDYWGWIRQHPGKGLEWIGHIYQSGSTNYNPKLKSRATISVDTYKNQFSLKLSSVTAADTAVYYCARDYDIFTGYSYYYYGMDVWGQGTTVTVSS
VL: DIQLTQSPSSLSASVGDRVTITCRASQSIISYLNWYQQKPGKAPKLLIYAASSLRSGVPSRFSGSGSGTDFTLTISSLQPEDFATYYCQQYSNYPLTFGGGTRVEIKR
50.0 nM Empty Nanodisc binding (relative to 10D10N35Y) [1]: 0.73 fold | 0.200 nM huCB1-Nanodisc binding (relative to 10D10N35Y) [2]: 5.75 fold | 100 nM huCB1-GFP-SMALP binding (normalized to 10D10N35Y) [3]: 3.24 fold

B15: LIBC523868-1 (antibody, V domains shown)
VH: QVQLQESGPGLVKPSQTLSLTCTVSGGSIRRGGDYWSWIRQHPGKGLEWIGHVYYEGSTAYNPSFEDRATISVNTYKNQFSLKLSSVTAADTAVYYCARDYDILTGYSYYYYGMDVWGQGTTVTVSS
VL: DIVMTQSPLSLPVTPGEPASISCRSSQSLLTSYGINYVDWYLQKPGQSPQLLIYLGSNRASGVPDRFSGSGSGTDFTLKISRVEAEDVGVYYCMQARQIPRTFGQGTKVEIKR
specific huCB1 binding (CB1 ND/Empty ND ratio) [4]: 13.3 ratio | 100 nM huCB1-SMALP binding (normalized to 10D10) [5]: 4.21 fold | relative binding to 0.2 nM huCB1-ND (relative to 10D10N35Y) [6]: 6.28 fold
